Results reported in patent US20100144530A1, “IDENTIFICATION OF A NEW CLASS OF EPSP SYNTHASES” (priority 2005, published 2010).

System: ΔaroA E. coli cells
Assay: Complementation of ΔaroA E. coli cells (functional EPSP synthase)
Type: cell-based
Details: plasmid transformed into ΔaroA E. coli cells

Row | Molecule | Complementation of the aroA deletion
1 | grg9: EPSP synthase ORF from Agrobacterium tumefaciens strain C58, in plasmid pAX702 (SEQ ID NO:3/4) (protein) MIELTITPPGHPLSGKVEPPGSKSITNRALLLAGLAKGKSHLSGALKSDDTLYMAEALREMGVKVTEPDATTFVVEGTGVLQQPEKPLFLGNAGTATRFLTAAGALVDGAVIIDGDEHMRKRPILPLVQALRALGVEADAPTGCPPVTVRGKGMGFPKGSVTIDANLSSQYVSALLMAAACGDKPVDIILKGEEIGAKGYIDLTTSAMEAFGAKVERVSNAIWRVHPTGYTATDFHIEPDASAATYLWGAELLTGGAIDIGTPADKFTQPDAKAYEVMAQFPHLPAEIDGSQMQDAIPTIAVIAAFNETPVRFVGIANLRVKECDRIRAVSLGLNEIREGLAHEEGDDLIVHADPSLAGQTVDASIDTFADHRIAMSFALAALKIGGIAIQNPACVAKTYPGYWKALASLGVDYTEKESAAEPQH | complement the deletion
2 | grg6: EPSP synthase ORF from Pseudomonas syringae pv. tomato strain DC3000, in plasmid pAX703 (SEQ ID NO:1/2) (protein) MRPQATLTVMPVERPLVGRVSPPGSKSITNRALLLAGLAKGTSRLTGALKSDDTRVMSEALRLMGVQVDEPDDSTFVVTSSGHWQAPQQALFLGNAGTATRFLTAALANFEGDFVVDGDEYMRKRPIGPLVDALQRMGVEISAPSGCPPVAIKGKGGLQAGRIEIDGNLSSQYVSALLMAGACGKGSLEVALTGSEIGARGYVDLTLAAMQAFGAEVQAIGDAAWKVSATGYHATDFHIEPDASAATYLWAAQALTEGNIDLGVASDAFTQPDALASQIIDSFPNMPAVIDGSQMQDAIPTLAVLAAFNRQPVRFVGIANLRVKECDRISALCDGLCAIAPGLAVEEGDDLIVHANPALAGTTVNALIDTHSDHRIAMCFALAGLKIKGIHIQDPDCVAKTYPGYWDALASLGVSVQR | complement the deletion
